Experimental data from patent US20220119467A1.
No end group written: not given here.

T1: YFP-degronSwitcha
T1 sequence: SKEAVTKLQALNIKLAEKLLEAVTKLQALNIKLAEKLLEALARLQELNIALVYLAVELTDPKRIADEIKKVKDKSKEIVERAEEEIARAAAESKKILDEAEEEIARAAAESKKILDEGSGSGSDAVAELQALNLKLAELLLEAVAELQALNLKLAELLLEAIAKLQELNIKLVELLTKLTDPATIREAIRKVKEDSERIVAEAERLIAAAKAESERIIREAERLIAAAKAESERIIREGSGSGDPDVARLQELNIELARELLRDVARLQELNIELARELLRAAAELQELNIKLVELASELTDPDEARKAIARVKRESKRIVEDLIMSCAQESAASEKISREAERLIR

T2: dCas9-VP64-RFP-degronSwitcha
T2 sequence: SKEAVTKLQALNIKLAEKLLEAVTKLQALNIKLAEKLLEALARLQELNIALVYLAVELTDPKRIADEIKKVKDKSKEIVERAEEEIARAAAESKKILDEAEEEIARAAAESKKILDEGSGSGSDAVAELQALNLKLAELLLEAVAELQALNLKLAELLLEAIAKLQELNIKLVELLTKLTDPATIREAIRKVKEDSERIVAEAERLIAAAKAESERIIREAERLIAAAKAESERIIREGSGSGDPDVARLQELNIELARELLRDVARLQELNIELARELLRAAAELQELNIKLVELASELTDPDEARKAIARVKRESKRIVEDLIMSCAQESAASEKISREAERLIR


Tests used:
Experiment in all cases: cell-based or functional assay
[1] = biological target: T1, YFP-degronSwitcha
[2] = biological target: T2, dCas9-VP64-RFP-degronSwitcha
[3] = biological target: SynTF-RFP-degronSwitcha

| Binder | YFP fluorescence at steady state, flow cytometry, S. cerevisiae [1] | decrease in RFP fluorescence at 31.25 nM E2, flow cytometry, S. cerevisiae [2] | decrease in pTet7x-YFP reporter fluorescence at 31.25 nM E2, flow cytometry, S. cerevisiae [2] | decrease in RFP fluorescence at 31.25 nM E2, flow cytometry, S. cerevisiae [3] | decrease in pSynTF-YFP reporter fluorescence at 31.25 nM E2, flow cytometry, S. cerevisiae [3] |
| --- | --- | --- | --- | --- | --- |
| Keya-BFP (designed binder, not shown: large carriers, not fully specified (C-terminus); also: linker to BFP not given here) EARKAIARVKRESKRIVEDAERLIREAAAASEKISREAERLIREAAAASEKISRE | < 73% | 78% | 41% |  |  |
| keya-BFP-NLS (designed binder, not shown: large carriers, not fully specified (C-terminus); also: BFP and NLS sequences not given here) EARKAIARVKRESKRIVEDAERLIREAAAASEKISREAERLIREAAAASEKISRE |  |  |  | 61% | 82% |
